Among the data in article PMC4355418 are response values, retold here.

Assay in all cases: peptide binding assay on Ni2+ coated plate (absorbance at 405 nm)
Experiment [1] addresses T1, CRK1 hC peptide (helix-C region of the CRK1 kinase domain).
T1 chain: HRRADKDSAFVNELES
The settings on record: chain shown with the change; protein immobilized on a Ni2+ coated plate; triplicate; SUMO control absorbance subtracted; parent: est. 0.39; read off a plot.

For experiment [2], the target named is T2, JMD1 peptide of the ACR4 juxtamembrane domain.
T2 chain: DTRSSKDSAFTKDNG
The settings on record: chain shown with the change; protein immobilized on a Ni2+ coated plate; triplicate; SUMO control absorbance subtracted; parent: est. 0.14; read off a plot.

Experiment [3] deals with T3, pJMD1 peptide (JMD1 with phosphorylated Ser475).
T3 chain: DTRSSKDSAFTKDNG
The settings on record: chain shown with the change; protein immobilized on a Ni2+ coated plate; triplicate; SUMO control absorbance subtracted; parent: est. 0.29; read off a plot.

B1: SUMO-tagged ACR4 KC (sACR4 KC), ACR4 intracellular domain lacking the JMD, Q9LX29 LLSLL motif replaced with AAAAA (residue numbers not printed) (protein)
chain: FKEESIVGKGSFSCVYKGVLRDGTTVAVKRAIMSSDKQKNSNEFRTELDLLSRLNHAHAAAAAGYCEECGERLLVYEFMAHGSLHNHLHGKNKALKEQLDWVKRVTIAVQAARGIEYLHGYACPPVIHRDIKSSNILIDEEHNARVADFGLSLLGPVDSGSPLAELPAGTLGYLDPEYYRLHYLTTKSDVYSFGVLLLEILSGRKAIDMHYEEGNIVEWAVPLIKAGDINALLDPVLKHPSEIEALKRIVSVACKCVRMRGKDRPSMDKVTTALERALAQLMGNPSSEQPILPTEVVLGSSRMHKKSWRIGSKRSGSENTEFRGGSWITFPSVTSSQRRKSSASEGDVAEEEDEGRKQQEALRSLEEEIGPASPGQSLFLHHNF
Turning to B1, the response in experiment [1] was found to be 0.3 A405; in experiment [2], 0.042 A405; in experiment [3], 0.17 A405.
